Reference: article PMC7721647, “The Human RNA Helicase DDX21 Presents a Dimerization Interface Necessary for Helicase Activity” (iScience, 2020)

Biological target: T1, DDX21Fl (human, UniProt Q9NR30 1-783)
T1 sequence: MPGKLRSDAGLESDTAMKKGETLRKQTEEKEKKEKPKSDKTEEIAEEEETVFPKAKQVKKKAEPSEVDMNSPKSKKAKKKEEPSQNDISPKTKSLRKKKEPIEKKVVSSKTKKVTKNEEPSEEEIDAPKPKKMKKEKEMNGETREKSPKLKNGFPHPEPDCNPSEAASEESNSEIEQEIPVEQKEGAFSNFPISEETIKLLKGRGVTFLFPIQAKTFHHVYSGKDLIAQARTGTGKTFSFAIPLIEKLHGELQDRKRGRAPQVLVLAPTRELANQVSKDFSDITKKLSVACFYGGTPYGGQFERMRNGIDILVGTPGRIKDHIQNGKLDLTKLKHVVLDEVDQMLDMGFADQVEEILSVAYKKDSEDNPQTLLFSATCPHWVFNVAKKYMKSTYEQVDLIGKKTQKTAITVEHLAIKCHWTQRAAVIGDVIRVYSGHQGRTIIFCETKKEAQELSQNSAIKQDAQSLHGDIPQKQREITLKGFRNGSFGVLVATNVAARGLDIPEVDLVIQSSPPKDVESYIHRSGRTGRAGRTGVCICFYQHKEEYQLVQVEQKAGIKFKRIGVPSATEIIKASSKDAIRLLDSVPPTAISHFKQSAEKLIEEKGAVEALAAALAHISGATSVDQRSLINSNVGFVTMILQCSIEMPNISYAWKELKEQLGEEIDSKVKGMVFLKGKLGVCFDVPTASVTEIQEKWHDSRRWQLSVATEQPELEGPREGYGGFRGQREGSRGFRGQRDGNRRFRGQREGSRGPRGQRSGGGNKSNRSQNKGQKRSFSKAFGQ
Assay: fluorescence polarization; no ATP; 50 mM KCl; FP: 50 mM Tris pH 7.5, 50 mM KCl, 5 mM MgCl2, no ATP; Hill-slope fit; temperature not given in the material
Settings: protein: recombinant; tags: N-terminal Trx-His6, cut with thrombin; chain copies: 2; label: 5'-FAM; G4

GUUGGGGCGGGCGUUGGGUUUGGGGGGACG (structured_RNA) [Q2 RNA G-quadruplex] gave a Kd of 2.6 ± 0.1 nM.
